These results are taken from article PMC2843729.

This assay deals with mouse CNPase catalytic domain containing the C-terminal tail (construct 6-2) (mouse). The assay can be described thus: SEC; HiLoad 16/60 Superdex 200, after Ni-TED purification and TEV cleavage; dimer to monomers. For orientation: In gel filtration, larger molecules generally elute earlier.

Usually stoichiometry N stands for a count of units in the complex or per binding partner. “mouse CNPase catalytic domain containing the C-terminal tail (construct 6-2) (domain or fragment)” returned a stoichiometry N of 2.
